This note sets out measurements from IntAct's records for PubMed 29426014.

To fix the notation:
B1: Ubiquitin-protein ligase (Homo sapiens), Q05086-2 (parent)
chain: MKRAAAKHLIERYYHQLTEGCGNEACTNEFCASCPTFLRMDNNAAAIKALELYKINAKLCDPHPSKKGASSAYLENSKGAPNNSCSEIKMNKKGARIDFKDVTYLTEEKVYEILELCREREDYSPLIRVIGRVFSSAEALVQSFRKVKQHTKEELKSLQAKDEDKDEDEKEKAACSAAAMEEDSEASSSRIGDSSQGDNNLQKLGPDDVSVDIDAIRRVYTRLLSNEKIETAFLNALVYLSPNVECDLTYHNVYSRDPNYLNLFIIVMENRNLHSPEYLEMALPLFCKAMSKLPLAAQGKLIRLWSKYNADQIRRMMETFQQLITYKVISNEFNSRNLVNDDDAIVAASKCLKMVYYANVVGGEVDTNHNEEDDEEPIPESSELTLQELLGEERRNKKGPRVDPLETELGVKTLDCRKPLIPFEEFINEPLNEVLEMDKDYTFFKVETENKFSFMTCPFILNAVTKNLGLYYDNRIRMYSERRITVLYSLVQGQQLNPYLRLKVRRDHIIDDALVRLEMIAMENPADLKKQLYVEFEGEQGVDEGGVSKEFFQLVVEEIFNPDIGMFTYDESTKLFWFNPSSFETEGQFTLIGIVLGLAIYNNCILDVHFPMVVYRKLMGKKGTFRDLGDSHPVLYQSLKDLLEYEGNVEDDMMITFQISQTDLFGNPMMYDLKENGDKIPITNENRKEFVNLYSDYILNKSVEKQFKAFRRGFHMVTNESPLKYLFRPEEIELLICGSRNLDFQALEETTEYDGGYTRDSVLIREFWEIVHSFTDEQKRLFLQFTTGTDRAPVGGLGKLKMIIAKNGPDTERLPTSHTCFNVLLLPEYSSKEKLKERLLKAITYAKGFGML
partner: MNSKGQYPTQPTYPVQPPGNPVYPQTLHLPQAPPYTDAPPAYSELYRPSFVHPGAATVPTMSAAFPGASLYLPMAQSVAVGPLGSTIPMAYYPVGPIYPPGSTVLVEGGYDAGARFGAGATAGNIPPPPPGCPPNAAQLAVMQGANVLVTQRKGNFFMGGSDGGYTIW
B2: Ubiquitin-protein ligase (Homo sapiens), Q05086-2 (parent)
chain: B1 chain
partner: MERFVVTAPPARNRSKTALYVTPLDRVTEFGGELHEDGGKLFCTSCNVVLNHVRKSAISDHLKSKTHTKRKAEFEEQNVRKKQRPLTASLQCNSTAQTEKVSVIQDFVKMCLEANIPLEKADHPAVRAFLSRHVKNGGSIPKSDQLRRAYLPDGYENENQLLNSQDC
B3: Ubiquitin-protein ligase (Homo sapiens), Q05086-2 (parent)
chain: B1 chain
B4: Ubiquitin-protein ligase (Homo sapiens), Q05086-3 (parent)
chain: MATACKRSGEPQSDDIEASRMKRAAAKHLIERYYHQLTEGCGNEACTNEFCASCPTFLRMDNNAAAIKALELYKINAKLCDPHPSKKGASSAYLENSKGAPNNSCSEIKMNKKGARIDFKDVTYLTEEKVYEILELCREREDYSPLIRVIGRVFSSAEALVQSFRKVKQHTKEELKSLQAKDEDKDEDEKEKAACSAAAMEEDSEASSSRIGDSSQGDNNLQKLGPDDVSVDIDAIRRVYTRLLSNEKIETAFLNALVYLSPNVECDLTYHNVYSRDPNYLNLFIIVMENRNLHSPEYLEMALPLFCKAMSKLPLAAQGKLIRLWSKYNADQIRRMMETFQQLITYKVISNEFNSRNLVNDDDAIVAASKCLKMVYYANVVGGEVDTNHNEEDDEEPIPESSELTLQELLGEERRNKKGPRVDPLETELGVKTLDCRKPLIPFEEFINEPLNEVLEMDKDYTFFKVETENKFSFMTCPFILNAVTKNLGLYYDNRIRMYSERRITVLYSLVQGQQLNPYLRLKVRRDHIIDDALVRLEMIAMENPADLKKQLYVEFEGEQGVDEGGVSKEFFQLVVEEIFNPDIGMFTYDESTKLFWFNPSSFETEGQFTLIGIVLGLAIYNNCILDVHFPMVVYRKLMGKKGTFRDLGDSHPVLYQSLKDLLEYEGNVEDDMMITFQISQTDLFGNPMMYDLKENGDKIPITNENRKEFVNLYSDYILNKSVEKQFKAFRRGFHMVTNESPLKYLFRPEEIELLICGSRNLDFQALEETTEYDGGYTRDSVLIREFWEIVHSFTDEQKRLFLQFTTGTDRAPVGGLGKLKMIIAKNGPDTERLPTSHTCFNVLLLPEYSSKEKLKERLLKAITYAKGFGML
partner: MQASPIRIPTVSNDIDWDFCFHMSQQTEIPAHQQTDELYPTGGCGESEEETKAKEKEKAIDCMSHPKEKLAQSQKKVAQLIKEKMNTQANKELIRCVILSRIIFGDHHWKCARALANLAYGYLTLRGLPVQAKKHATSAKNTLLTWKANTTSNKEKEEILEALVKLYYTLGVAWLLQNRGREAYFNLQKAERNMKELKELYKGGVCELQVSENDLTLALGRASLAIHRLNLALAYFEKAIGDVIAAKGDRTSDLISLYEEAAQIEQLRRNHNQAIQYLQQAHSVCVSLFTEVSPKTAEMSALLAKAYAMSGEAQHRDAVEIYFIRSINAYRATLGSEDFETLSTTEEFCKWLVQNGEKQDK
B5: Ubiquitin-protein ligase (Homo sapiens), Q05086-3 (parent)
chain: B4 chain
partner: B2 partner
B6: Ubiquitin-protein ligase (Homo sapiens), Q05086-1 (parent)
chain: MEKLHQCYWKSGEPQSDDIEASRMKRAAAKHLIERYYHQLTEGCGNEACTNEFCASCPTFLRMDNNAAAIKALELYKINAKLCDPHPSKKGASSAYLENSKGAPNNSCSEIKMNKKGARIDFKDVTYLTEEKVYEILELCREREDYSPLIRVIGRVFSSAEALVQSFRKVKQHTKEELKSLQAKDEDKDEDEKEKAACSAAAMEEDSEASSSRIGDSSQGDNNLQKLGPDDVSVDIDAIRRVYTRLLSNEKIETAFLNALVYLSPNVECDLTYHNVYSRDPNYLNLFIIVMENRNLHSPEYLEMALPLFCKAMSKLPLAAQGKLIRLWSKYNADQIRRMMETFQQLITYKVISNEFNSRNLVNDDDAIVAASKCLKMVYYANVVGGEVDTNHNEEDDEEPIPESSELTLQELLGEERRNKKGPRVDPLETELGVKTLDCRKPLIPFEEFINEPLNEVLEMDKDYTFFKVETENKFSFMTCPFILNAVTKNLGLYYDNRIRMYSERRITVLYSLVQGQQLNPYLRLKVRRDHIIDDALVRLEMIAMENPADLKKQLYVEFEGEQGVDEGGVSKEFFQLVVEEIFNPDIGMFTYDESTKLFWFNPSSFETEGQFTLIGIVLGLAIYNNCILDVHFPMVVYRKLMGKKGTFRDLGDSHPVLYQSLKDLLEYEGNVEDDMMITFQISQTDLFGNPMMYDLKENGDKIPITNENRKEFVNLYSDYILNKSVEKQFKAFRRGFHMVTNESPLKYLFRPEEIELLICGSRNLDFQALEETTEYDGGYTRDSVLIREFWEIVHSFTDEQKRLFLQFTTGTDRAPVGGLGKLKMIIAKNGPDTERLPTSHTCFNVLLLPEYSSKEKLKERLLKAITYAKGFGML
partner: B4 partner
B7: Ubiquitin-protein ligase (Homo sapiens), Q05086-2 (parent)
chain: B1 chain
partner: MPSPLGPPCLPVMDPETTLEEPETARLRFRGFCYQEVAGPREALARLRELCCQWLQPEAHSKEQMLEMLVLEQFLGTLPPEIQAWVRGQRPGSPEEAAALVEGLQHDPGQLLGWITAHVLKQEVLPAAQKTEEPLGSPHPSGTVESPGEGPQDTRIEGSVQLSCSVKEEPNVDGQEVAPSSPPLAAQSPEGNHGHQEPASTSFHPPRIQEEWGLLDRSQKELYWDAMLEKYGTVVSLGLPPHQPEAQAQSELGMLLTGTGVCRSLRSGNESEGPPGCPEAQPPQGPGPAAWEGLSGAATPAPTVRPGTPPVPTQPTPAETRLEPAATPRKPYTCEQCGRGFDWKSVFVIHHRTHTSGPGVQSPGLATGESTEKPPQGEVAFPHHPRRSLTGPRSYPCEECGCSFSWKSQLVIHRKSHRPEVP
B8: Ubiquitin-protein ligase (Homo sapiens), Q05086-1 (parent)
chain: B6 chain
partner: B2 partner
B9: Ubiquitin-protein ligase (Homo sapiens), Q05086-1 (parent)
chain: B6 chain
partner: B7 partner
B10: Ubiquitin-protein ligase (Homo sapiens), Q05086-3 (parent)
chain: B4 chain
partner: B1 partner
B11: Ubiquitin-protein ligase (Homo sapiens), Q05086-2 (parent)
chain: B1 chain
partner: B4 partner

The variants in the first assay derive from B1. The note with it: with DAZAP2, Q15038-1.
As for C820A, the “effect of a mutation on the interaction” value was “causing an interaction”.

The variants in a further assay derive from B2. The note with it: with cgbp1_human CGGBP1, Q9UFW8.
Turning to C820A, the “effect of a mutation on the interaction” value is given as “causing an interaction”.

Variants of B3 are the subject of the next assay. To be noted: with ZNF250, P15622-3.
ZNF250, P15622-3, sequence (P15622 other isoform, or with tags, fused parts or gaps): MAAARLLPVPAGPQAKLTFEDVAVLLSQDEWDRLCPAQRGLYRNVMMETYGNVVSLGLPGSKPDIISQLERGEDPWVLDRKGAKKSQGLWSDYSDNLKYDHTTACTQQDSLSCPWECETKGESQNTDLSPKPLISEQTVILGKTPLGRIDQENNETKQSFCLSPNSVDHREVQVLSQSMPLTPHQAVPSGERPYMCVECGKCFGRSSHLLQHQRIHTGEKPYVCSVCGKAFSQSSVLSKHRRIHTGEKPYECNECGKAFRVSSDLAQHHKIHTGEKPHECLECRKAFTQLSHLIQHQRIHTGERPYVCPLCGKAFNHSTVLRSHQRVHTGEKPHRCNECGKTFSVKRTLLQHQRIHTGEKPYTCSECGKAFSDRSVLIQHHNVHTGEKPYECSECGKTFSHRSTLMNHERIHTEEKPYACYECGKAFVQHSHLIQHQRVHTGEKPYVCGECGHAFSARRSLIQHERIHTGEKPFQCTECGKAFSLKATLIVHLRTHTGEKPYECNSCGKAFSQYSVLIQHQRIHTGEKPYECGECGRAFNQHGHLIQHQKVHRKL
As to C820A, the “effect of a mutation on the interaction” value was “causing an interaction”.

Another assay covers variants of B3. To be noted: with PAX6, P26367-1.
PAX6, P26367-1, sequence (P26367 whole entry): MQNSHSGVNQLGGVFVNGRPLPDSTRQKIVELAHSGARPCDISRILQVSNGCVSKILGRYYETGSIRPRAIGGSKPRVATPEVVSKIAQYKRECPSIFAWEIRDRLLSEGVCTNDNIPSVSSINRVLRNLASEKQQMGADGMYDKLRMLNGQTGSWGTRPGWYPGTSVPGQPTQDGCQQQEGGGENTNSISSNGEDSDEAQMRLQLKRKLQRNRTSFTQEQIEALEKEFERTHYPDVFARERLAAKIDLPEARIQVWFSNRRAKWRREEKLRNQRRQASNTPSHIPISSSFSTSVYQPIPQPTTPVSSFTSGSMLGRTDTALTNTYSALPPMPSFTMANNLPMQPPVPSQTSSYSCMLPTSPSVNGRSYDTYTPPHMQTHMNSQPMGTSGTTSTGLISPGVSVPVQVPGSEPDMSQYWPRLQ
Turning to C820A, the “effect of a mutation on the interaction” value is “causing an interaction”.

A further assay covers variants of B3. The note with it: with magac_human MAGEA12, P43365.
magac_human MAGEA12, P43365, sequence (P43365 whole entry): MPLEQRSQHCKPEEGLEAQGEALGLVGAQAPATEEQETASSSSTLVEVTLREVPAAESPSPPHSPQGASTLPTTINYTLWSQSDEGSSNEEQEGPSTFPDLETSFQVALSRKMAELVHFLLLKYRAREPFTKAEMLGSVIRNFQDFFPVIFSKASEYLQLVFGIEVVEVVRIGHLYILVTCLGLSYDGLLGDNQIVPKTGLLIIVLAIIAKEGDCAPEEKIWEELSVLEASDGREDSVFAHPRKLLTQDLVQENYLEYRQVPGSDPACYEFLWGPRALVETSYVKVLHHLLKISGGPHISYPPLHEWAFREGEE
With C820A, the “effect of a mutation on the interaction” value was “with no effect”.

A further assay covers variants of B3. The note with it: with PSMD4, P55036-1.
PSMD4, P55036-1, sequence (P55036 whole entry): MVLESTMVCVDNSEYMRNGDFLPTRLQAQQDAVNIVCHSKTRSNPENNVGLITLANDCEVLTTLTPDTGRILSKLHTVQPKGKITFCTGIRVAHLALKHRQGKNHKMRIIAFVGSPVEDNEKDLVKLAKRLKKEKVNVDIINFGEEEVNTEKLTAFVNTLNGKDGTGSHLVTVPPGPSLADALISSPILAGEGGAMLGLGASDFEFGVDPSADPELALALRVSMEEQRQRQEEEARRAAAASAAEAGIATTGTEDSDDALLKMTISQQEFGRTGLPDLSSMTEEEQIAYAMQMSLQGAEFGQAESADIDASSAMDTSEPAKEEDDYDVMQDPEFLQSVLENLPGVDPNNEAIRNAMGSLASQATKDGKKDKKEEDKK
For C820A, the “effect of a mutation on the interaction” value is reported as “with no effect”.

In a further assay the parent is B3. The note with it: with PAX5, Q02548-1.
PAX5, Q02548-1, sequence (Q02548 whole entry): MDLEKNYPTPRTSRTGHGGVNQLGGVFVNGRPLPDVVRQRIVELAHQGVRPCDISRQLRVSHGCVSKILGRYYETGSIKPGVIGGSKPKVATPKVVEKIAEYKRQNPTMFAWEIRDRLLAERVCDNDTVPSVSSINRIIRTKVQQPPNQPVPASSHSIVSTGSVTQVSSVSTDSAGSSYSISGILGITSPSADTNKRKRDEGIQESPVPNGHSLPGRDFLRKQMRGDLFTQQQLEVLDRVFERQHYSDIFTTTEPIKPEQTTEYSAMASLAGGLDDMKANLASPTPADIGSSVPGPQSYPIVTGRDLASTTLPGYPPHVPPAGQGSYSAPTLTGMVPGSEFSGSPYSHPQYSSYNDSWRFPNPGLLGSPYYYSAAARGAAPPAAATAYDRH
With C820A, the “effect of a mutation on the interaction” value is “causing an interaction”.

In the next assay the parent is B3. To be noted: with PTCD3, Q96EY7-1.
Consider C820A, for which the “effect of a mutation on the interaction” value is given as “with no effect”.

Variants of B3 are the subject of another assay. To be noted: with ubql2_human UBQLN2, Q9UHD9.
ubql2_human UBQLN2, Q9UHD9, sequence (Q9UHD9 whole entry): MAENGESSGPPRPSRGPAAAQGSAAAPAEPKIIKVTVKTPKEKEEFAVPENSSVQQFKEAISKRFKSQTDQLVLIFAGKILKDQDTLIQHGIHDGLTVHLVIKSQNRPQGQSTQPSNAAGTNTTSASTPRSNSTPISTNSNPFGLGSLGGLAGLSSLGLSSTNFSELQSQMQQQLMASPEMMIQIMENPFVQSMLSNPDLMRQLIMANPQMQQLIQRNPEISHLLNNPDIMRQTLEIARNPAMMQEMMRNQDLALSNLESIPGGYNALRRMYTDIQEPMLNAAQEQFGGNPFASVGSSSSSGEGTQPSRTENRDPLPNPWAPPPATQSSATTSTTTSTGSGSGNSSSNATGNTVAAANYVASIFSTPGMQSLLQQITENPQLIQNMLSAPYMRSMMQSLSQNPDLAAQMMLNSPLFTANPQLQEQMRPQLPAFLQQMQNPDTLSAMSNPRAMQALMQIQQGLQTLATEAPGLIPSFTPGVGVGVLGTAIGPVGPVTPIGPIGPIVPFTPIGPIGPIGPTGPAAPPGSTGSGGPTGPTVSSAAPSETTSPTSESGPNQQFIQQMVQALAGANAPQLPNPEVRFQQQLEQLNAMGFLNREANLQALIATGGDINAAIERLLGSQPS
In the case of C820A, the “effect of a mutation on the interaction” value is recorded as “with no effect”.

The variants in another assay derive from B3. The note with it: with UBQLN1, Q9UMX0-1.
UBQLN1, Q9UMX0-1, sequence (Q9UMX0 whole entry): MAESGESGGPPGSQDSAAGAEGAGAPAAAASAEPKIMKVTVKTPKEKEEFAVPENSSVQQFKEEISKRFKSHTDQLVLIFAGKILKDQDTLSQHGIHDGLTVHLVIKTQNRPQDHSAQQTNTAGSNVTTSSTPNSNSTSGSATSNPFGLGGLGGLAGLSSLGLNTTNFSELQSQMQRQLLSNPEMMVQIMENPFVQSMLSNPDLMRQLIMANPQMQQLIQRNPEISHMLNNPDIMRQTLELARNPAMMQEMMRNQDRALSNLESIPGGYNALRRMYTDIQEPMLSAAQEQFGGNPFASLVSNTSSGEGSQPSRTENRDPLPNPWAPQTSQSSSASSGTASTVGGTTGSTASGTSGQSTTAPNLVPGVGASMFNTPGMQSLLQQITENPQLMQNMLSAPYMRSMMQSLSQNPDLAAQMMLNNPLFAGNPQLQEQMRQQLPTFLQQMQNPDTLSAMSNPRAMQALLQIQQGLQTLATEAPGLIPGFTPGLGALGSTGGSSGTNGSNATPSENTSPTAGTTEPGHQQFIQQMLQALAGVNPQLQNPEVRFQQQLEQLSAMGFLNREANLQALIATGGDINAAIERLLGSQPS
C820A: the “effect of a mutation on the interaction” value is “with no effect”.

A further assay covers variants of B3. To be noted: with herc2_human HERC2, O95714.
For C820A, the “effect of a mutation on the interaction” value is “causing an interaction”.

In the next assay the parent is B4. To be noted: with TTC23L.
On to C840A, for which the “effect of a mutation on the interaction” value was “causing an interaction”.

In another assay the parent is B5. The note with it: with cgbp1_human CGGBP1, Q9UFW8.
With C840A, the “effect of a mutation on the interaction” value is on record as “causing an interaction”.

Another assay covers variants of B6. To be noted: with TTC23L.
C843A: the “effect of a mutation on the interaction” value is on record as “causing an interaction”.

Variants of B7 are the subject of the next assay. The note with it: with ZNF446, Q9NWS9-2.
With C820A, the “effect of a mutation on the interaction” value is on record as “causing an interaction”.

Variants of B8 are the subject of the next assay. The note with it: with cgbp1_human CGGBP1, Q9UFW8.
Turning to C843A, the “effect of a mutation on the interaction” value is listed as “causing an interaction”.

Another assay covers variants of B9. To be noted: with ZNF446, Q9NWS9-2.
Consider C843A, for which the “effect of a mutation on the interaction” value is recorded as “causing an interaction”.

In the next assay the parent is B10. The note with it: with DAZAP2, Q15038-1.
With C840A, the “effect of a mutation on the interaction” value was “causing an interaction”.

The next assay covers variants of B11. To be noted: with TTC23L.
For the variant C820A, the “effect of a mutation on the interaction” value is listed as “causing an interaction”.
